The record followed here is patent publication US20200405889A1 (WASHINGTON UNIVERSITY, published 2020).

The target in the assay is mouse chemokine (C-C motif) receptor 2 (CCR2) (mouse, UniProt P51683 1-373). As to the kind of experiment: cell-based or functional assay.

Where no end group is shown, it is not given here. [ ]: non-standard residue; d: D form.

Chain of mouse chemokine (C-C motif) receptor 2 (CCR2) (P51683 whole entry): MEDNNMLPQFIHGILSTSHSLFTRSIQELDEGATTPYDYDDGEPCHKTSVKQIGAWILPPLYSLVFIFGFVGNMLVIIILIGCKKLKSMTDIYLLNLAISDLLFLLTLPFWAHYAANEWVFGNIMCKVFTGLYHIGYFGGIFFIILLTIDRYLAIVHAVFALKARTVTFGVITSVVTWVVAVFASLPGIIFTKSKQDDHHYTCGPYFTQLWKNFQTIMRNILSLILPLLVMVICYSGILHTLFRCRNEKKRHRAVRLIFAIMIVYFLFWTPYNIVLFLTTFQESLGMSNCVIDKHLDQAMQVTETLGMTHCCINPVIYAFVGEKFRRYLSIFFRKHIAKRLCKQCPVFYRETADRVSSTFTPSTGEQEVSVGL

B1: ^64CuAuNCs-ECL1i (other)
peptide: [dL]G[dT][dF][dL][dK][dC]
modifications: not fully specified (residue 7); also: peptide joined via TA-PEG-Maleimide to a gold nanocluster doped with 64Cu, copy number not given here
In the case of B1, the “graft/native lung uptake ratio, PET at 4 hours” value came out at 7.24 ratio; the “graft/native lung uptake ratio, PET at 24 hours” value was 8.44 ratio; the “graft/native lung uptake ratio, PET, printed 'At 4 hours after transplantation'” value came to 6.58 ratio.
